Reference: publication PMC8985508

Biological target: trastuzumab
Experiment: fluorescence polarisation

NH2-PEG20-Fc-III (peptide)
IC50: 91 nM

Fc-III labeled with fluorescein (Fc-III-FAM) (peptide)
Kd: 14 nM

Fc-III peptide (wild-type Fc-III)
IC50: 58 nM
